Source: paper PMC4660213, “Identification and characterization of multiple rubisco activases in chemoautotrophic bacteria” (Nature Communications, 2015)

B1: Acidithiobacillus ferrooxidans CbbO2 (natural protein, UniProt B7J5E5 1-759, looked up)
chain: MTDHPRDASLPSRLAAYRKQLDCRFPRVGEVFSDCIAKASARLGPAGVSAYVDAARALCKLGRGEEPVLIFLEEWPDVGAALGDGTLEMVMQMVQFMQRTPNGNAIGGFLQSLAPVSRALLSREQLGHYLNTLRDMMERTTGSIHGHHQTHPSPGLPELLRQAPTLLQSLTVDGLRNWVDYGVRNYLHHPERQKDFFSLQSADSRAVLQRERHGTLLADVERKLDLYLRGLWQDSEVLVPYSTAFATLRTPQPYYDALGMRLPDVLDDLPGIGALDHYRAILAHMVGHRRWSTPQIADNWSPFQRLAVEFFEDARIDTLLIRTYPGLRTLFLALHPKPGEDACDPETTSCLRHRLAMLSRALLDPEHGYRNPVLHDFVDRFHGELAGGNADTATMARLALDYVTTTRRQSDQFAKVHFADTEISYRDDNRGLWRFIESGDEEEAFDAEQRKAPDLETQGLPPRHYPEWDYQSQSYRPDWVSLYEGLHASAPAATIDQLLLKHAALAKHLKRLLDLLKPQDKVRIRYQEEGSELDLDVALRSWIDFKSGSTPDPRINMSHRTAGRDIAVTLLLDLSESLNESVKTGGGDGQTVLQLSQEAVSLLAWSIEQLGDPLAIAGFNSNTRHEVRYQHIKGFSEPWGDVVKGRLAALQAGYSTRMGAAMRHAGHYLATRKADKKLMLVLTDGRPSDVDVQDDRLLIEDARQAVNELDRDGIFTYCISLDPHADAYVADIFGRQYTVIDHIARLPEKLPELFIALTR
notes: VWA-domain protein CbbO2 of Acidithiobacillus ferrooxidans ATCC 23270, locus AFE_2157; insoluble unless co-expressed with CbbQ2; also called AfCbbO2; source: E. coli, co-expressed with CbbQ2, co-purified (Ni-NTA, ubiquitin cleaved, MonoQ, Superdex 200; 5 mM MgCl2 and 5% glycerol in buffers); not shown: His6, N-terminal, cleaved; ubiquitin, N-terminal, cleaved
B2: Acidithiobacillus ferrooxidans CbbQ2 (natural protein, UniProt B7J5E4 1-272, looked up)
chain: MTATDSSILNQYLVGKEPFYQPQHDEVALFEAAYRKRLPVMVKGPTGCGKSRFVEFMAWRLGKPLVTVACNEDMTAADLVGRWLLDKDGTRWQDGPLTVAARYGAICYLDEIVEARQDTTVVIHPLTDHRRTLPLDKKGELIRAHPDFQLVISYNPGYQSLMKDLKQSTKQRFTGFEFDYPNAELEAGILVQETGVAPSIAAQLVTVAATARRLKGHGLDEGISTRLLVYAAMLMDDGVAPRAACRMALVQPITDDADIRATLEHAIDMTFA
notes: MoxR-type AAA+ protein CbbQ2 of Acidithiobacillus ferrooxidans ATCC 23270, locus AFE_2156; native N terminus after cleavage of His6-ubiquitin; also called AfQ2; AfCbbQ2; not shown: His6, N-terminal, cleaved; ubiquitin, N-terminal, cleaved
B3: Acidithiobacillus ferrooxidans CbbO1 (natural protein, UniProt B7JA27 1-772, looked up)
chain: MKHLEDYAELLQAFGEGSQAILQSKWQEATRVFSPSGLDQYLDGAMGLRSLGKGDGLVSSYLDAAPHIAREVGEDAVWELVGAVMKMASKTSGAVLEAVVSTSPTAANRLADPELFKSYLGMLDRLLAQVPRALRPMLENIDQLFGYLTLGGLRRWALWGAHAHRTDFEAQIAYFSLKSPEALAMLQQERKGTLFVDIQRRLRMYLRALWGRDFFLRPTSGDFEDREGYRPYIEGIFIHLPDAYDDWEDIDGMTRYRAVAVHAAAHVAYMRKAISAEALTPEQMAVIGLFEDARVEALAMRAFPGIRAIWLPFHTAVAGPVASMGHLFSRLARAIIDPDYVDDNAWVQEGRRVFMEAEARWDDPQLSWDLGVHLADRLRNQRVSYHARTDIPDILYRDDNRYIWEFEEIDWEHETTILPGAQVRKYVNVMEMVNEVDTELAGDDAQEVWVLQSELFPYEDMGLSYNQMEGKEPVSDPFHYPEWDYQIQASRPLWATVLERRPRLGDARVVREVLEKYKPVSSRLRYLIEALQPQGVQRLRKQEDGDEIDVEAAVRALVDIRMGLAPDTRIHMRSLRKVRDLGVLVLMDLSESTNDKVRGSEDSILQLTRDATSLLADAMNRIGDPFAIHGFHSDGRHDVAYYRFKDFDEAYSEEAMGRIAGMTGKFSTRMGAALRHAGHHLRHQRQSRKLLLVITDGEPADIDVRDPQYLRHDARRAVEDLGRDGVITYCLSLDPHADEYVSRIFGARNYQVIDHVERLPERLPILYAGLTR
notes: VWA-domain protein CbbO1 of Acidithiobacillus ferrooxidans ATCC 23270, locus AFE_3054; insoluble unless co-expressed with CbbQ1; also called AfCbbO1; source: E. coli, co-expressed with CbbQ1, co-purified (Ni-NTA, ubiquitin cleaved, MonoQ, Superdex 200); not shown: His6, N-terminal, cleaved; ubiquitin, N-terminal, cleaved
B4: Rhodobacter sphaeroides form I rubisco small subunit (natural protein, UniProt P27998 1-129, looked up)
chain: MRITQGCFSFLPDLTDEQISAQVDYCLGRGWAVSLEHTDDPHPRNTYWEMWGMPMFDLRDPKGVMIELDECRKAWPGRYIRINAFDSTRGFETVTMSFIVNRPEVEPSLRMERTEVDGRSIRYTHSIVR
notes: form I rubisco small subunit of Rhodobacter sphaeroides; also called small subunit of RsLS
B5: Rhodobacter sphaeroides form I rubisco large subunit (natural protein, UniProt P27997 1-486, looked up)
chain: MDTKTTEIKGKERYKAGVLKYAQMGYWDGDYVPKDTDVLALFRITPQEGVDPVEAAAAVAGESSTATWTVVWTDRLTACDSYRAKAYRVEPVPGTPGQYFCYVAYDLILFEEGSIANLTASIIGNVFSFKPLKAARLEDMRFPVAYVKTYKGPPTGIVGERERLDKFGKPLLGATTKPKLGLSGKNYGRVVYEGLKGGLDFMKDDENINSQPFMHWRDRFLYVMEAVNLASAQTGEVKGHYLNITAGTMEEMYRRAEFAKSLGSVIVMVDLIIGYTAIQSISEWCRQNDMILHMHRAGHGTYTRQKNHGISFRVIAKWLRLAGVDHLHCGTAVGKLEGDPLTVQGYYNVCREPFNTVDLPRGIFFEQDWADLRKVMPVASGGIHAGQMHQLLSLFGDDVVLQFGGGTIGHPMGIQAGATANRVALEAMVLARNEGRNIDVEGPEILRAAAKWCKPLEAALDTWGNITFNYTSTDTSDFVPTASVAM
notes: form I rubisco large subunit of Rhodobacter sphaeroides; also called large subunit of RsLS
B6: Acidithiobacillus ferrooxidans CbbQ1 (natural protein, UniProt B7JA26 1-267, looked up)
chain: MNDQLTEYRIKKAPYYRATGDETELYEAAYSVRMPMMLKGPTGCGKTRFVEYMAYKLGKPLITVACNEDMTASDLVGRFLLDPQGTRWQDGPLTLAARLGAICYLDEVVEARQDTTVVIHPLTDNRRVLPLEKKGELVQAHPDFQLVISYNPGYQSLMKDLKQSTKQRFGALDFNYPDHEIEAEIVSHETGVNKEVADKLVSIAERARNLKGHGLDEGISTRMLVYAGSLINKGVEAKAACRVTLVRPITDDPDMRDALDAAVTTYF
notes: MoxR-type AAA+ protein CbbQ1 of Acidithiobacillus ferrooxidans ATCC 23270, locus AFE_3053; native N terminus after cleavage of His6-ubiquitin; six copies in the Q1O1 complex; alone it eluted in the void volume (likely soluble aggregates); also called AfQ1; AfCbbQ1; source: E. coli, co-expressed with CbbO1, co-purified (Ni-NTA, ubiquitin cleaved, MonoQ, Superdex 200); not shown: His6, N-terminal, …
B7: Acidithiobacillus ferrooxidans form I rubisco large subunit (natural protein, UniProt B7JA24 1-473, looked up)
chain: MAVKTYNAGVKDYRNTYWEPDYSVKDTDILAVFKITPQAGVDREEAAAAVAAESSTGTWTTVWTDLLTDLDYYKGRAYRIEDVPGDDTCFYAFIAYPIDLFEEGSVVNVFTSLVGNVFGFKAVRALRLEDVRFPIAYVKTCGGPPHGIQVERDIMNKYGRPLLGCTIKPKLGLSAKNYGRACYEGLRGGLDFTKDDENVNSQPFMRWRQRFDFVMEAIQKAEAETGERKGHYLNVTAPTPEEMYKRAEYAKEIGAPIIMHDYITGGFCANTGLANWCRDNGMLLHIHRAMHAVLDRNPHHGIHFRVLTKILRLSGGDHLHSGTVVGKLEGDREATLGWIDIMRDRFIKEDRSRGIFFDQDWGSMPGVMPVASGGIHVWHMPALVTIFGDDSVLQFGGGTLGHPWGNAAGAAANRVALEACVEARNRGVAIEKEGKAVLTEAAKHSPELKIAMETWKEIKFEFDTVDKLDVAHK
notes: form I rubisco large subunit (CbbL) of Acidithiobacillus ferrooxidans ATCC 23270, locus AFE_3051; gene amplified from genomic DNA; cbbL and cbbS were amplified together and cloned between NdeI and HindIII of pET30b; no tag is mentioned; also called AfL; CbbL; source: E. coli BL21, co-expressed with the small subunit from pET30bAfcbbLS, purified (Source30Q, Superdex 200)
B8: Acidithiobacillus ferrooxidans form II rubisco (enzyme, UniProt B7J5E3 1-459, looked up)
chain: MDQSNRYADLSLKEEDLISGGKHILVAYKMKPKAGHGYLEAAAHFAAESSTGTNVEVSTTDDFTKGVDALVYHIDEATEDMRIAFPLELFDRNVTDGRMMIVSFLTLVIGNNQGMGDIEHGQMIDFFMPPRAIQLFDGPAKDISDLWRILGRPIKDGGYIAGTIIKPKLGLRPEPFAAAAYQFWLGGDFIKNDEPQGNQVFAPVKKTIPLVYDAMKRAMDETGEAKLFSMNITADDHYEMCARADFALETFGPDADKLAFLVDGFVGGPGMITTARRQYAGQYLHYHRAGHGMITSPSAKRGYTAFVLAKMSRLQGASGIHVGTMGYGKMEGGADDRNIAYMIERDSCDGPVYHQEWYGMKPTTPIISGGMNALRLPGFFENLGHGNVINTAGGGSYGHIDSPAAGAVSLRQAYECWKAGADPIEYAREHKEFARAFESFPGDADKLYPGWREKLGVHR
notes: form II rubisco (CbbM) of Acidithiobacillus ferrooxidans ATCC 23270, locus AFE_2155; native N terminus after cleavage of His6-ubiquitin; used as ECM, ER and ECMC complexes in the enzymatic assays; also called AfM; CbbM; source: E. coli BL21 (DE3), purified (Ni-NTA, ubiquitin cleaved, Mono Q, Superdex 200); not shown: His6, N-terminal, cleaved; ubiquitin, N-terminal, cleaved
B9: Rhodopseudomonas palustris form II rubisco (enzyme, UniProt Q6N0W9 1-461, looked up)
chain: MDQSNRYANLNLKESELIAGGRHVLCAYIMKPKAGFGNFIQTAAHFAAESSTGTNVEVSTTDDFTRGVDALVYEVDEANSLMKIAYPIELFDRNVIDGRAMIASFLTLTIGNNQGMGDVEYAKMYDFYVPPAYLKLFDGPSTTIKDLWRVLGRPVINGGFIVGTIIKPKLGLRPQPFANACYDFWLGGDFIKNDEPQGNQVFAPFKDTVRAVADAMRRAQDKTGEAKLFSFNITADDHYEMLARGEFILETFADNADHIAFLVDGYVAGPAAVTTARRAFPKQYLHYHRAGHGAVTSPQSKRGYTAFVLSKMARLQGASGIHTGTMGFGKMEGEAADRAIAYMITEDAADGPYFHQEWLGMNPTTPIISGGMNALRMPGFFDNLGHSNLIMTAGGGAFGHVDGGAAGAKSLRQAEQCWKQGADPVEFAKDHREFARAFESFPQDADKLYPNWRAKLKPQAA
notes: form II rubisco (CbbM) of Rhodopseudomonas palustris; gene synthesized by Genscript, cloned in pHue; also called RpM; source: E. coli BL21 (DE3), purified (Ni-NTA, ubiquitin cleaved, Mono Q, Superdex 200); not shown: His6, N-terminal, cleaved; ubiquitin, N-terminal, cleaved

Legend:
[1] = molecular target: B2; test: SEC + other: glycerol gradient sedimentation; combined Stokes radius/sedimentation analysis: Stokes radius from gel filtration, Svedberg coefficient from 5–30% glycerol gradients in buffer A (1 mg/ml, 35,000 r.p.m., 16 h, 4 °C); M=4,205 (SRs); conditions: both partners purified
[2] = molecular target: B2; test: quantitative densitometry of SDS-PAGE; Coomassie-stained SDS–PAGE of the purified complexes (4 µg per lane), assuming equal binding of the dye; conditions: both partners purified
[3] = molecular target: the molecule itself; test: SEC + other: glycerol gradient sedimentation; combined Stokes radius/sedimentation analysis: Stokes radius from gel filtration, Svedberg coefficient from 5–30% glycerol gradients in buffer A (1 mg/ml, 35,000 r.p.m., 16 h, 4 °C); M=4,205 (SRs)
[4] = molecular target: B6; test: as above; conditions: both partners purified
[5] = molecular target: B6; test: quantitative densitometry of SDS-PAGE; Coomassie-stained SDS–PAGE of the purified complexes (4 µg per lane), assuming equal binding of the dye; conditions: both partners purified
[6] = molecular target: B5; test: SEC + other: glycerol gradient sedimentation; combined Stokes radius/sedimentation analysis: Stokes radius from gel filtration, Svedberg coefficient from 5–30% glycerol gradients in buffer A (1 mg/ml, 35,000 r.p.m., 16 h, 4 °C); M=4,205 (SRs); conditions: both partners purified

| Binder | stoichiometry N [3] | other results |
| --- | --- | --- |
| B1 | – | stoichiometry N [1]: 1 CbbO subunit per CbbQ hexamer; stoichiometry N [2]: 1 CbbO subunit per 6 CbbQ subunits |
| B2 | 6 subunits in the oligomer | – |
| B3 | – | stoichiometry N [4]: 1 CbbO subunit per CbbQ hexamer; stoichiometry N [5]: 1 CbbO subunit per 6 CbbQ subunits |
| B4 | – | binding result [6]: binds |
| B5 | 8 large subunits in the complex | – |
| B6 | 6 CbbQ subunits in the complex | – |
| B7 | 8 large subunits in the complex | – |
| B8 | 6 subunits in the oligomer | – |
| B9 | 6 subunits in the oligomer | – |
